According to article PMC12718255, “Quantitative assessment of porin-mediated solute transport in biomimetic membranes” (Applied Microbiology and Biotechnology, 2025):

Substrate: Oc1ccc(Cc2nc3c(Cc4ccccc4)nc(-c4ccc(O)cc4)cn3c2O)cc1
Assay: luminescence, extrapolated peak intensity, Hill fit
Format: biochemical, Gaussia princeps (in: crustaceans)
Details: free GLuc 0.05 µM, PBS, O2 as co-substrate, 0.1-30 µM CLZ

B1: Gaussia luciferase (GLuc) (Gaussia princeps (in: crustaceans); M127L/M60L) (protein)
chain: KPTENNEDFNIVAVASNFATTDLDADRGKLPGKKLPLEVLKELEANARKAGCTRGCLICLSHIKCTPKMKKFIPGRCHTYEGDKESAQGGIGEAIVDIPEIPGFKDLEPLEQFIAQVDLCVDCTTGCLKGLANVQCSDLLKKWLPQRCATFASKIQGQVDKIKGAGGD
- K0.5: 9.8 (95% CI [6.2 µM, 43.1 µM]) µM
